Measured values as given in paper PMC5983854, “Structure-guided approach to site-specific fluorophore labeling of the lac repressor LacI” (PLoS ONE, 2018).

Key:
[1] = system: LacIDimer-S28C (Escherichia coli); experiment: EMSA; conditions: apparent Kd; 3 mM MgCl2; EMSA: 1 nM DNA, 0.5-100 nM LacI, 10 mM Tris pH 7.5, 50 mM NaCl, 3 mM MgCl2, 1 mM TCEP, 0.1 mg/mL BSA, 5% glycerol, room temperature 1 h; TIRF: 100 mM phosphate
[2] = target: the molecule itself; experiment: SEC; analytical gel filtration on HiLoad 16/600 Superdex 200, 0.2 mL/min, buffer C (200 mM Tris-HCl pH 7.5, 200 mM KCl, 1 mM EDTA, 0.5 mM TCEP); column calibrated with proteins of known molecular weight; dimer to monomers

Molecule | Kd [1] [nM] | stoichiometry N [2]
5'-Cy5 O1 operator dsDNA | 5.63 | –
LacI^ΔCterm (lactose operon repressor LacI, tetramerization helix residues 339-360 replaced with a 6xHis tag) (domain or fragment, E. coli, UniProt P03023 1-338, looked up, Lactose operon repressor LacI, E. coli, 360 amino acid monomer; the native 22 C-terminal amino acids (tetramerization helix, residues 339-360) are replaced with a 6xHis tag, the rest is wild type; only the replaced stretch 339-360 is printed; source: E. coli TOP10 (pBAD24, arabinose-induced), purified (HisTrap HP, Superdex 200 SEC); not shown: His6, C-terminal, kept) MKPVTLYDVAEYAGVSYQTVSRVVNQASHVSAKTREKVEAAMAELNYIPNRVAQQLAGKQSLLIGVATSSLALHAPSQIVAAIKSRADQLGASVVVSMVERSGVEACKAAVHNLLAQRVSGLIINYPLDDQDAIAVEAACTNVPALFLDVSDQTPINSIIFSHEDGTRLGVEHLVALGHQQIALLAGPLSSVSARLRLAGWHKYLTRNQIQPIAEREGDWSAMSGFQQTMQMLNEGIVPTAMLVANDQMALGAMRAITESGLRVGADISVVGYDDTEDSSCYIPPLTTIKQDFRLLGQTSVDRLLQLSQGQAVKGNQLLPVSLVKRKTTLAPNTQTAS | – | 2
LacI^Dimer (LacI^ΔCterm with C107A, C140A; Cys281 retained) (domain or fragment, E. coli, UniProt P03023 1-338, looked up, Lactose operon repressor LacI, E. coli; residues 339-360 replaced with a 6xHis tag; Cys107 and Cys140 replaced with alanine, Cys281 retained; source: E. coli TOP10 (pBAD24, arabinose-induced), purified (HisTrap HP, Superdex 200 SEC); not shown: His6, C-terminal, kept) MKPVTLYDVAEYAGVSYQTVSRVVNQASHVSAKTREKVEAAMAELNYIPNRVAQQLAGKQSLLIGVATSSLALHAPSQIVAAIKSRADQLGASVVVSMVERSGVEAAKAAVHNLLAQRVSGLIINYPLDDQDAIAVEAAATNVPALFLDVSDQTPINSIIFSHEDGTRLGVEHLVALGHQQIALLAGPLSSVSARLRLAGWHKYLTRNQIQPIAEREGDWSAMSGFQQTMQMLNEGIVPTAMLVANDQMALGAMRAITESGLRVGADISVVGYDDTEDSSCYIPPLTTIKQDFRLLGQTSVDRLLQLSQGQAVKGNQLLPVSLVKRKTTLAPNTQTAS | – | 2
